Assay results: IntAct's records for PubMed 18571423

B1: Histone-binding protein RBBP7 (Homo sapiens), Q16576 (parent)
chain: MASKEMFEDTVEERVINEEYKIWKKNTPFLYDLVMTHALQWPSLTVQWLPEVTKPEGKDYALHWLVLGTHTSDEQNHLVVARVHIPNDDAQFDASHCDSDKGEFGGFGSVTGKIECEIKINHEGEVNRARYMPQNPHIIATKTPSSDVLVFDYTKHPAKPDPSGECNPDLRLRGHQKEGYGLSWNSNLSGHLLSASDDHTVCLWDINAGPKEGKIVDAKAIFTGHSAVVEDVAWHLLHESLFGSVADDQKLMIWDTRSNTTSKPSHLVDAHTAEVNCLSFNPYSEFILATGSADKTVALWDLRNLKLKLHTFESHKDEIFQVHWSPHNETILASSGTDRRLNVWDLSKIGEEQSAEDAEDGPPELLFIHGGHTAKISDFSWNPNEPWVICSVSEDNIMQIWQMAENIYNDEESDVTTSELEGQGS

Variants of: B1
Details: with h4_human H4C16, P62805

effect of a mutation on the interaction	Variant
disrupting interaction	E356Q;D357N;E359Q;D360N
disrupting interaction	L30Y
disrupting interaction	L30Y;E356Q;D357N;E359Q;D360N
